Data from paper PMC11746154 (2023).

B1: Gal4AD-Rec104 [S. cerevisiae] / LexA-Rec102 [S. cerevisiae] (parent complex)
chain 1: MSIEEEDTNKITCTQDFLHQYFVTERVSIQFGLNNKTVKRINKDEFDKAVNCIMSWTNYPKPGLKRTASTYLLSNSFKKSATVSLPFILGDPVCMPKRVESNNNDTCLLYSDTLYDDPLIQRNDQAGDEIEDEFSFTLLRSEVNEIRPISSSSTAQILQSDYSALMYERQASNGSIFQFSSP
chain 2: MARDITFLTVFLESCGAVNNDEAGKLLSAWTSTVRIEGPESTDSNSLYIPLLPPGMLKIKLNFKMNDRLVTEEQELFTKLREIVGSSIRFWEEQLFYQVQDVSTIENHVILSLKCTILTDAQISTFISKPRELHTHAKGYPEIYYLSELSTTVNFFSKEGNYVEISQVIPHFNEYFSSLIVSQLEFEYPMVFSMISRLRLKWQQSSLAPISYALTSNSVLLPIMLNMIAQDKSSTTAYQILCRRRGPPIQNFQIFSLPAVTYNK

Variants of: B1
Experiment: Y2H β-galactosidase assay; parent: 0.97; read off a plot

Variant | response
chain 1 F17A | ~0.8 normalized β-gal units
chain 1 T12A | ~0.75 normalized β-gal units
chain 1 L33A | ~0.87 normalized β-gal units
chain 1 F31A | ~1.6 normalized β-gal units
chain 1 L18A | ~0.75 normalized β-gal units
chain 1 I11A | ~0.93 normalized β-gal units
chain 1 I53A | ~1.1 normalized β-gal units
chain 1 Y21A | ~1.1 normalized β-gal units
chain 1 K10A | ~0.83 normalized β-gal units
chain 1 V50A | ~1.2 normalized β-gal units

Variants of: B1
Experiment: as above
Remark: another data set of the same source

Variant | response
chain 2 F11A | ~0.9 normalized β-gal units
chain 2 V10A | ~0.6 normalized β-gal units
chain 2 S182A | ~0.62 normalized β-gal units
chain 2 Q183A | ~0.01 normalized β-gal units
chain 2 L8A | ~1.4 normalized β-gal units
chain 2 L179A | ~0.1 normalized β-gal units
chain 2 F156A | ~1.5 normalized β-gal units
